Literature values in US20210265014A1, “METHOD AND ELECTRONIC SYSTEM FOR PREDICTING AT LEAST ONE FITNESS VALUE OF A PROTEIN VIA AN EXTENDED NUMERICAL SEQUENCE, RELATED COMPUTER PROGRAM PRODUCT” (PEACCEL, priority 2018, published 2021).

Conditions: Aspergillus niger epoxide hydrolase; for ΔΔG values: enantioselectivity as ΔΔG‡=−RT ln(E); for E-value: enantioselectivity, glycidyl phenyl ether

Row | Molecule | ΔΔG values [kcal/mol] | E-value
1 | L215 F_A217N_R219S_L249Y_T317W_T318V_C350V: epoxide hydrolase mutant from Aspergillus niger (protein) NHKAFAKFPSSASISPNPFTVSIPDEQLDDLKTLVRLSKIAPPTYESLQADGRFGITSEWLTTMREKWLSEFDWRPFEARLNSFPQFTTEIEGLTIHFAALFSEREDAVPIALLHGWPGSFVEFYPILQLFREEYTPETLPFHLVVPSLPGYTFSSGPPLDKDFGLMDNARVVDQLMKDLGFGSGYIIQGGDIGSFVGRLLGVGFDACKAVHLNLCNMSAPPEGPSIESLSAAEKEGIARMEKFMTDGYAYAMEHSTRPSTIGHVLSSSPIALLAWIGEKYLQWVDKPLPSETILEMVSLYWLTESFPRAIHTYREWVPTASAPNGATMLQKELYIHKPFGFSFFPKDLVPVPRSWIATTGNLVFFRDHAEGGHFAALERPRELKTDLTAFVEQVWQK | -2.73 | 93.2
2 | WT: WT epoxide hydrolase sequence from Aspergillus niger (protein, Aspergillus niger) NHKAFAKFPSSASISPNPFTVSIPDEQLDDLKTLVRLSKIAPPTYESLQADGRFGITSEWLTTMREKWLSEFDWRPFEARLNSFPQFTTEIEGLTIHFAALFSEREDAVPIALLHGWPGSFVEFYPILQLFREEYTPETLPFHLVVPSLPGYTFSSGPPLDKDFGLMDNARVVDQLMKDLGFGSGYIIQGGDIGSFVGRLLGVGFDACKAVHLNLCAMRAPPEGPSIESLSAAEKEGIARMEKFMTDGLAYAMEHSTRPSTIGHVLSSSPIALLAWIGEKYLQWVDKPLPSETILEMVSLYWLTESFPRAIHTYRETTPTASAPNGATMLQKELYIHKPFGFSFFPKDLCPVPRSWIATTGNLVFFRDHAEGGHFAALERPRELKTDLTAFVEQVWQK | -0.85 | 4
